Measured values from patent US20240400614A1, “CLEAVABLE PEPTIDES AND METHODS OF USE THEREOF” (Bright Peak Therapeutics AG, priority 2023, published 2024).
Square brackets hold non-standard residues; d marks the D form. Ends that are not written are not given here. Tyr(3-NO2) = N[C@@H](Cc1ccc(O)c([N+](=O)[O-])c1)C(=O)O; Nle = CCCC[C@H](N)C(=O)O; 2Abz = Nc1ccccc1C(=O)O

Columns and labels:
Format in all cases: biochemical
[1] = biological target: T1, MMP-7 (Homo sapiens, UniProt P09237); test: FRET peptide cleavage efficiency with MMP-7 (standard pH 7.5; also pH 6.5)
T1 construct: purchased SIGMA CC1059
T1 sequence (P09237 95-267): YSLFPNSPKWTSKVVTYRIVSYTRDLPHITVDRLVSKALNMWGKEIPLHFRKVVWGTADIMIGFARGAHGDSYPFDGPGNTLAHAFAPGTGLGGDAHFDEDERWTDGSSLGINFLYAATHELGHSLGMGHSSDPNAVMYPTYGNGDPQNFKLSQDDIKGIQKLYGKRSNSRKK

[2] = biological target: T2, matriptase (Homo sapiens, UniProt Q9Y5Y6); test: FRET peptide cleavage efficiency with matriptase
T2 construct: purchased R&D Systems 3946-SEB
T2 sequence (Q9Y5Y6 615-855 limits assumed): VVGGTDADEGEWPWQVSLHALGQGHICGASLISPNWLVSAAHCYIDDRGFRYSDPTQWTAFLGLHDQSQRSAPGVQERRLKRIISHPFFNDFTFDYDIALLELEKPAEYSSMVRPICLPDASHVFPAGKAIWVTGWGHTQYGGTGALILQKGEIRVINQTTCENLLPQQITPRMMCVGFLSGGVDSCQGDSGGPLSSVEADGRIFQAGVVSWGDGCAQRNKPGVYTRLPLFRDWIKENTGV

[3] = biological target: T3, MMP-2 (Homo sapiens, UniProt P08253); test: FRET peptide cleavage efficiency with MMP-2
T3 construct: purchased SIGMA PF023
T3 sequence (P08253 110-660): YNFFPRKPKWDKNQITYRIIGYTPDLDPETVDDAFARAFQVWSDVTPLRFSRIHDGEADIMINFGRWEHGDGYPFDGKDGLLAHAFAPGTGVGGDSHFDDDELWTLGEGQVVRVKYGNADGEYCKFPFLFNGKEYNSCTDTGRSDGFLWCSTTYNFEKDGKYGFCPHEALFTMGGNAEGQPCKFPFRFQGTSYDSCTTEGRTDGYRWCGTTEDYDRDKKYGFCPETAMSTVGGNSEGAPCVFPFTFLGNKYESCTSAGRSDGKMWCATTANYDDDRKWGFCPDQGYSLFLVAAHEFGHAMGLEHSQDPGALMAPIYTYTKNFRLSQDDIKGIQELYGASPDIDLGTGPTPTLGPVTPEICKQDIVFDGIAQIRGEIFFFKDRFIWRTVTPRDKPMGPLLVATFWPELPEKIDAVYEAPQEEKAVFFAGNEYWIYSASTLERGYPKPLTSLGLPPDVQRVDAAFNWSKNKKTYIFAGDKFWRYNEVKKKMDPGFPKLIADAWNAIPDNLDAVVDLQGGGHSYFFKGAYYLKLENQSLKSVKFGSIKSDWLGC

[4] = biological target: uPA (Homo sapiens, UniProt P00749); test: FRET peptide cleavage efficiency with uPA
[5] = biological target: T4, MMP-9 (Homo sapiens, UniProt P14780); test: FRET peptide cleavage efficiency with MMP-9 (standard pH 7.5; also pH 6.5)
T4 construct: purchased SIGMA PF024
T4 sequence (P14780 94-707): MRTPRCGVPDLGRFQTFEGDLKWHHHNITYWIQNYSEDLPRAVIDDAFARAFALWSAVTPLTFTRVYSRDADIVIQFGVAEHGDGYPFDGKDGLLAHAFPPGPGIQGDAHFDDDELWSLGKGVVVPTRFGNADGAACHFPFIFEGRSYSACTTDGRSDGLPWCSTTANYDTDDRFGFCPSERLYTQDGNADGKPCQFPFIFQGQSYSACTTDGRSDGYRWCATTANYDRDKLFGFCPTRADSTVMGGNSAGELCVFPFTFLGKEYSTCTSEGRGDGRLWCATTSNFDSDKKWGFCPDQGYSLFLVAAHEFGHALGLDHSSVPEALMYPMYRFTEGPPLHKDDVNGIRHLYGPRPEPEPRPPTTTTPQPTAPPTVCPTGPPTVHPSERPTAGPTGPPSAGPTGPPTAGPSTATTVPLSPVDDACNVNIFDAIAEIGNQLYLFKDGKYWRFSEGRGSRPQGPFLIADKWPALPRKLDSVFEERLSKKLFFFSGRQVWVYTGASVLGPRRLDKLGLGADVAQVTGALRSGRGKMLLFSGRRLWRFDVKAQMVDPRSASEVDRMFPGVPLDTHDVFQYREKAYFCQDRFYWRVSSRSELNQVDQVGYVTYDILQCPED

[6] = t = 15 min, standard conditions (Table 8)
[7] = t = 60 min, standard conditions (Table 8)
[8] = t = 120 min, standard conditions (Table 8)
[9] = 200 uM linker, 1 ug/ml protease, 37° C., buffer B pH 9.0
[10] = 200 uM linker, 1 ug/ml protease, 37° C., buffer A pH 8.5

Substance | % cleavage MMP-7 t = 15 min ([1]; t = 15 min (Table 9)) [%] | % cleavage MMP-7 t = 15 min [1, 6] [%] | % cleavage MMP-7 t = 60 min ([1]; t = 60 min (Table 9)) [%] | % cleavage MMP-7 t = 60 min [1, 7] [%] | % cleavage MMP-7 t = 120 min ([1]; t = 120 min (Table 9)) [%] | % cleavage MMP-7 t = 120 min [1, 8] [%] | % cleavage Matriptase t = 15 min ([2]; standard conditions (Table 8)) [%] | % cleavage Matriptase t = 60 min ([2]; standard conditions (Table 8)) [%] | % cleavage Matriptase t = 120 min ([2]; standard conditions (Table 8)) [%] | % cleavage MMP-2 t = 15 min ([3]; t = 15 min (Table 9)) [%] | % cleavage MMP-2 t = 60 min ([3]; t = 60 min (Table 9)) [%] | % cleavage MMP-2 t = 60 min [3, 7] [%] | % cleavage MMP-2 t = 120 min ([3]; t = 120 min (Table 9)) [%] | % cleavage MMP-2 t = 120 min [3, 8] [%] | % vcleavage uPA t = 15 min [4, 6] [%] | % cleavage uPA t = 60 min ([4]; standard conditions (Table 8)) [%] | % cleavage uPA t = 120 min ([4]; standard conditions (Table 8)) [%] | % cleavage MMP-9 t = 15 min ([5]; t = 15 min (Table 9)) [%] | % cleavage MMP-9 t = 60 min ([5]; t = 60 min (Table 9)) [%] | % cleavage MMP-9 t = 120 min ([5]; t = 120 min (Table 9)) [%] | further results
SGRVY-Nle-LQG ([2Abz]SGRVY[Nle]LQG[Tyr(3-NO2)]-NH2) [LNK045] | 0 | 0 | 0 | 0 | 0 | 0 | 0 | 0 | 0 | 0 | 0 | 0 | 0 | 0 | 0 | 0 | 0 | 0 | 0 | 0 | % cleavage MMP-9 t = 15 min [5, 6]: 0%; % cleavage MMP-9 t = 60 min [5, 7]: 0%; % cleavage MMP-9 t = 120 min [5, 8]: 0%
RGRKPYMLQG ([2Abz]RGRKPYMLQG[Tyr(3-NO2)]-NH2) [LNK035] | 28 | 28 | 80 | 80 | 95 | 95 | 67 | 100 | 100 | 33 | 77 | 77 | 91 | 91 | 0 | 0 | 0 | 42 | 100 | 100 | % cleavage MMP-9 t = 15 min [5, 6]: 42%; % cleavage MMP-9 t = 60 min [5, 7]: 100%; % cleavage MMP-9 t = 120 min [5, 8]: 100%
RGRRPLGLAGGSG ([2Abz]RGRRPLGLAGGSG[Tyr(3-NO2)]-NH2) [LNK051] | 3 |  | 8 |  | 14 |  |  |  |  | 73 | 100 |  | 100 |  |  |  |  | 62 | 100 | 100 | % cleavage Matriptase t = 15 min [2, 9]: 22%; % cleavage Matriptase t = 60 min [2, 9]: 72%; % cleavage Matriptase t = 120 min [2, 9]: 100%; % cleavage MMP-2 t = 15 min ([3]; t = 15 min, 200 uM linker, 1 ug/ml protease, 37° C., buffer C pH 7.5): 73%; % cleavage MMP-2 t = 60 min ([3]; t = 60 min, 200 uM linker, 1 ug/ml protease, 37° C., buffer C pH 7.5): 100%; % cleavage MMP-2 t = 120 min ([3]; t = 120 min, 200 uM linker, 1 ug/ml protease, 37° C., buffer C pH 7.5): 100%; % cleavage uPA t = 15 min ([4]; t = 15 min, 200 uM linker, 1 ug/ml protease, 37° C., buffer A pH 8.5): 0%; % cleavage uPA t = 60 min [4, 10]: 0%; % cleavage uPA t = 120 min [4, 10]: 0%
RGRRVANLVG ([2Abz]RGRRVANLVG[Tyr(3-NO2)]-NH2) [LNK033] | 30 | 30 | 86 | 86 | 98 | 98 | 100 | 100 | 100 | 87 | 100 | 100 | 100 | 100 | 1 | 2 | 3 | 81 | 100 | 100 | % cleavage MMP-9 t = 15 min [5, 6]: 81%; % cleavage MMP-9 t = 60 min [5, 7]: 100%; % cleavage MMP-9 t = 120 min [5, 8]: 100%
